Data reported in patent US20200207869A1.

Experiments:
[1] = target: VWF in the plasma of the mice (endogenous murine VWF) (murine) (UniProt Q8CIZ8); experiment: sandwich ELISA of mouse plasma, anti-VWF capture, anti-FVIII detection
[2] = target: purified recombinant human VWF (human) (UniProt P04275); experiment: BLI (Octet-QK), rhVWF immobilized, FVIII 3.5 nM, single exponential decay
[3] = target: purified recombinant human VWF (human) (UniProt P04275); experiment: BLI (Octet-QK), rhVWF immobilized, FVIII 1.4 nM, single exponential decay
[4] = target: VWF in the plasma of the mice (endogenous murine VWF) (murine) (UniProt Q8CIZ8); experiment: sandwich ELISA of mouse plasma, anti-VWF capture, anti-FVIII detection; reference arbitrarily set as 100%

B-domainless FVIII containing a Tyr to Phe replacement at position 1680 (FVIII-SQ/p.Y1680F) (from UniProt P00451 20-2351)
VWF-FVIII complex relative to WT-FVIII-SQ [1]: 8%

purified recombinant full-length factor VIII (Kogenate), P00451 20-2351
koff [2]: 0.0022 s⁻¹
koff [3]: 0.003 s⁻¹

wild-type B-domainless FVIII (WT-FVIII-SQ) (from UniProt P00451 20-2351)
VWF-FVIII complex relative to WT-FVIII-SQ [4]: 100%
